Target: T1, human TMEM192 with a C-terminally fused HA epitope (human), Q8IY95
T1 chain: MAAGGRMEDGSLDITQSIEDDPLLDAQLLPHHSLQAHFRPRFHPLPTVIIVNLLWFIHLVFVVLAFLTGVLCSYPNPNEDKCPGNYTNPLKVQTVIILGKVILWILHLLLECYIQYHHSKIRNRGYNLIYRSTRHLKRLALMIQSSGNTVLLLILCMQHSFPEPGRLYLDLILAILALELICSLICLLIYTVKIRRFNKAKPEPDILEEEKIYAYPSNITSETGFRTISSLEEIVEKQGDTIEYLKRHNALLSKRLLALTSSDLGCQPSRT
Assay: non-reducing SDS-PAGE and Western blot; total lysates of transiently transfected HeLa cells denatured 5 min at 95°C in the absence of DTT; detection with anti-HA antibody 3F10; shows only disulphide-linked dimers
Conditions: remark: other sources report otherwise

B1: human TMEM192 with a C-terminally fused HA epitope, Q8IY95 1-271 (natural protein)
chain: MAAGGRMEDGSLDITQSIEDDPLLDAQLLPHHSLQAHFRPRFHPLPTVIIVNLLWFIHLVFVVLAFLTGVLCSYPNPNEDKCPGNYTNPLKVQTVIILGKVILWILHLLLECYIQYHHSKIRNRGYNLIYRSTRHLKRLALMIQSSGNTVLLLILCMQHSFPEPGRLYLDLILAILALELICSLICLLIYTVKIRRFNKAKPEPDILEEEKIYAYPSNITSETGFRTISSLEEIVEKQGDTIEYLKRHNALLSKRLLALTSSDLGCQPSRT
  stoichiometry N: 2

Source: publication PMC5546430
